According to patent US11111484B2, “Streptococcus bacteriophage lysins for detection and treatment of gram positive bacteria” (priority 2011, dated 2021):
“Also recorded” adds a separate entry of the source.

How the values were obtained:
MRSA strain MW2 = assay: resistance assay, exposure to incrementally increasing concentrations; format: cell-based, Staphylococcus aureus; conditions: concentration doubled daily from 1/32 to 4× MIC over 8 days
MRSA MW2 = assay: CFU studies, bactericidal effect; format: cell-based, Staphylococcus aureus; conditions: 128 μg/ml PlySs2, 1 hour
Experimental: (§1) Log-phase bacteria were resuspended in buffer A to an OD600 of 0.1 (=0.5 McFarland≈10^8 CFU/ml). PlySs2 was added at 128 μg/ml to polypropylene microtiter plates (Costar) in triplicate for each test organism. Plates were sealed and incubated at 37° C. with shaking every 5 minutes for 1 hour. After 1 hour of incubation, cells were serially diluted in 10-fold increments and plated on BHI. Triplicate controls for each strain were performed with buffer B replacing PlySs2.

S. pyogenes = assay: CFU studies, bactericidal effect; format: cell-based, Streptococcus pyogenes; conditions: 128 μg/ml PlySs2, 1 hour
Experimental: as §1

S. suis strain 7711 = assay: ΔPlySs1 biochemical characterization, turbidity reduction (OD600); format: cell-based, Streptococcus suis; conditions: for activity after 6 hours at 40° C. / activity after 6 hours at 45° C.: 6-hr incubation; for pH of maximal activity in bis-tris-propane: BTP 40 mM, pH 7.0-9.7, 110 μg/ml; for temperature at which activity completely abolished: held 30 min at 35° C.-60° C.; for effect of DTT on activity: pre-incubated 1 hr with 5 mM DTT
Experimental: The optimal biochemical conditions for PlySs1 were determined against live cells of the encoding S. suis strain (7711). For these experiments, activity was gauged through the degree of turbidity reduction (OD600) of an aqueous bacterial suspension following the addition of lysin. The pH-dependence of the enzyme was first addressed using two buffer sets with adjacent pH ranges, citrate/phosphate: 4.6-8.0; and bis-tris-propane (BTP): 7.0-9.7. An extended spectrum of lysis was observed, from 5.4-9.4 (FIG. 11A). In BTP, lysis was maximal from 8.2-9.0; at commensurate pH-values, however, the magnitude of the OD-drop was slightly more pronounced in citrate/phosphate (FIG. 11B).
The thermal stability of PlySs1 was examined by incubating the enzyme at various elevated temperatures prior to use (the OD-drop experiment itself was always conducted at 37° C.). When held at 35° C.-60° C. for 30 min, lysin activity was virtually unaffected until 50° C., at which point it was completely abolished (FIG. 14A). […] The latter corresponds to typical porcine body temperature.

S. suis 7711 (ST7) = assay: ΔPlySs1 CFU analysis, 1 hr treatment; format: cell-based, Streptococcus suis
Experimental: (§2) Truncated PlySs1(ΔPlySs1) lysin activity was determined against different cell types. Given the above experiments, the following optimal buffering conditions were employed for all further in vitro experiments with ΔPlySs1: 20 mM phosphate buffer, pH=7.8, 2 mM EDTA. A range of lysin concentrations, from 6.5-130 μg/ml, were introduced to live S. suis cells in this buffer. Three strains were considered particularly relevant: 7711, the serotype 7 strain that encodes PlySs1; S735, the serotype 2 reference strain; and 7997, a highly virulent serotype 9 strain. In terms of bacterial viability, only the highest PlySs1-concentration (130 μg/ml) led to a >90% decrease in CFUs for 7711, S735, and 7997 after 1 hr treatment (TABLE 2). The lysin was also tested against actively-dividing cells in broth culture (strain 7711) (FIG. 20).
(§3) For two ΔPlySs1 concentrations (130 and 13 μg/ml), CFU analysis was conducted on S. suis strains S735, 7997, and 7711 after 1 hr treatment (optimal buffering conditions). In each experiment, the percentage-decrease in CFUs was determined for the treated sample versus the untreated. The range of the values observed (across 3 independent experiments) is reported here for each strain. The serotype of each strain is indicated in parentheses.

S. suis 7997 (ST9) = assay: ΔPlySs1 CFU analysis, 1 hr treatment; format: cell-based, Streptococcus suis
Experimental: as §2, §3

S. suis S735 (ST2) = assay: ΔPlySs1 CFU analysis, 1 hr treatment; format: cell-based, Streptococcus suis
Experimental: as §2, §3

S. dysgalactiae GGS = assay: ΔPlySs1 OD600 lysis, 1 hr, optimal buffering conditions; format: cell-based, Streptococcus dysgalactiae
S. gordonii 10558 = assay: as above; format: cell-based, Streptococcus gordonii
S. sobrinus 6715 = assay: as above; format: cell-based, Streptococcus sobrinus
E. faecium EFSK2 = assay: as above; format: cell-based, Enterococcus faecium

B1: PlySs2: Streptococcus suis prophage lysin, SEQ ID NO:3; N-terminal CHAP domain and C-terminal SH3-type 5 domain (protein, listed as Streptococcus suis)
chain: MTTVNEALNNVRAQVGSGVSVGNGECYALASWYERMISPDATVGLGAGVGWVSGAIGDTISAKNIGSSYNWQANGWTVSTSGPFKAGQIVTLGATPGNPYGHVVIVEAVDGDRLTILEQNYGGKRYPVRNYYSAASYRQQVVHYITPPGTVAQSAPNLAGSRSYRETGTMTVTVDALNVRRAPNTSGEIVAVYKRGESFDYDTVIIDVNGYVWVSYIGGSGKRNYVATGATKDGKRFGNAWGTFK
Question: B1 was tested. Which development of resistance (MRSA strain MW2) did it give?
Answer: Neither S. aureus strain developed resistance; also recorded: None of MRSA strain MW2, MSSA strain 8325, nor S. pyogenes strain 5005 developed resistance

Question: What about the “reduction of colony forming units (CFUs)” value (MRSA MW2) of the same molecule?
Answer: 5 logs

Question: And the “reduction of colony forming units (CFUs)” value (S. pyogenes)?
Answer: 3 logs

B2: ΔPlySs1: truncated PlySs1 lysin, SEQ ID NO:2, N-terminal 254 amino acids: only N-terminal enzymatic and central binding domains (protein, listed as Streptococcus suis)
chain: MTINLETSIRWMSDRVGKVSYSMDYRNGPNSYDCSSAVYYALMAGGAISAGWAVNTEYMHDWLIRNGYVLVAENKPFNAQRHDVCILGKRGYSSGAGGHVVIFVDNVNVIHCNYARNGISIDNYNQVHRGMYYYLYRPANQPSISNKSLDQLVKETLAGVHGNGDTRKASLGSQYEAVMAVINGKASASEKSDEELAREVLAGKHGAGEDRKRSLGPRYEPVQAKVNELLKAKEKPSETAKNEPQTVQFKEDGDL
Question: How did the “effect of NaCl on bacteriolysis” value (S. suis strain 7711; 0-1000 mM NaCl) turn out when B2 was run?
Answer: bacteriolysis varied little

Question: What about the “activity after 6 hours at 40° C.” value (S. suis strain 7711) of the same molecule?
Answer: maintained essentially native activity

Question: What about the “activity after 6 hours at 40° C.” value (S. suis strain 7711; listed as PlySs1) of the same molecule?
Answer: unaffected

Question: What about the “activity after 6 hours at 45° C.” value (S. suis strain 7711) of the same molecule?
Answer: some loss of activity, though not complete

Question: And the “activity after 6 hours at 45° C.” value (S. suis strain 7711; listed as PlySs1)?
Answer: partial decrease in activity

Question: And the “pH of maximal activity in bis-tris-propane” value (S. suis strain 7711)?
Answer: 9.0

Question: And the “pH of maximal activity in bis-tris-propane” value (S. suis strain 7711; listed as PlySs1)?
Answer: 8.2-9.0

Question: What about the “pH spectrum of lysis” value (S. suis strain 7711; citrate/phosphate 4.6-8.0 and BTP 7.0-9.7) of the same molecule?
Answer: 5.4-9.4

Question: What about the “effect of EDTA on activity” value (S. suis strain 7711; excess EDTA) of the same molecule?
Answer: did not negatively impact activity

Question: What about the “temperature at which activity completely abolished” value (S. suis strain 7711) of the same molecule?
Answer: complete loss of activity was observed between the 45 °C and 50 °C samples

Question: And the “temperature at which activity completely abolished” value (S. suis strain 7711; listed as PlySs1)?
Answer: 50 °C

Question: And the “effect of DTT on activity” value (S. suis strain 7711)?
Answer: activity was unchanged

Question: And the “effect of DTT on activity” value (S. suis strain 7711; listed as PlySs1)?
Answer: did not negatively impact activity

Question: What about the “percentage-decrease in CFUs, range of 3 experiments” value (shortened to “percentage-decrease in CFUs, range”) (S. suis 7711 (ST7); 13 μg/ml) of the same molecule?
Answer: 0%-35.6%

Question: What about the “percentage-decrease in CFUs, range” value (S. suis 7711 (ST7); 130 μg/ml) of the same molecule?
Answer: 95.3%-99.2%

Question: What about the “percentage-decrease in CFUs, range” value (S. suis 7711 (ST7); 130 μg/ml, listed as PlySs1) of the same molecule?
Answer: > 90%

Question: What about the “percentage-decrease in CFUs, range” value (S. suis 7997 (ST9); 13 μg/ml) of the same molecule?
Answer: 16.8%-30.3%

Question: And the “percentage-decrease in CFUs, range” value (S. suis 7997 (ST9); 130 μg/ml)?
Answer: 89.9%-93.9%

Question: What about the “percentage-decrease in CFUs, range” value (S. suis 7997 (ST9); 130 μg/ml, listed as PlySs1) of the same molecule?
Answer: > 90%

Question: What about the “percentage-decrease in CFUs, range” value (S. suis S735 (ST2); 13 μg/ml) of the same molecule?
Answer: 80.4%-92.6%

Question: What about the “percentage-decrease in CFUs, range” value (S. suis S735 (ST2); 130 μg/ml) of the same molecule?
Answer: 95.4%-99.5%

Question: What about the “percentage-decrease in CFUs, range” value (S. suis S735 (ST2); 130 μg/ml, listed as PlySs1) of the same molecule?
Answer: > 90%

Question: What about the “lysis value after 1 hr (treated/untreated OD600 ratio)” value (S. dysgalactiae GGS; 6.5 μg/ml) of the same molecule?
Answer: 0.30

Question: And the “lysis value after 1 hr (treated/untreated OD600 ratio)” value (S. dysgalactiae GGS; 13 μg/ml)?
Answer: 0.27

Question: And the “lysis value after 1 hr (treated/untreated OD600 ratio)” value (S. dysgalactiae GGS; 30 μg/ml)?
Answer: 0.15

Question: And the “lysis value after 1 hr (treated/untreated OD600 ratio)” value (S. dysgalactiae GGS; 65 μg/ml)?
Answer: 0.11

Question: What about the “lysis value after 1 hr (treated/untreated OD600 ratio)” value (S. dysgalactiae GGS; 130 μg/ml) of the same molecule?
Answer: 0.14

Question: What about the “lysis value after 1 hr (treated/untreated OD600 ratio)” value (S. gordonii 10558; 6.5 μg/ml) of the same molecule?
Answer: 0.76

Question: And the “lysis value after 1 hr (treated/untreated OD600 ratio)” value (S. gordonii 10558; 13 μg/ml)?
Answer: 0.32

Question: And the “lysis value after 1 hr (treated/untreated OD600 ratio)” value (S. gordonii 10558; 30 μg/ml)?
Answer: 0.19

Question: What about the “lysis value after 1 hr (treated/untreated OD600 ratio)” value (S. gordonii 10558; 65 μg/ml) of the same molecule?
Answer: 0.09

Question: And the “lysis value after 1 hr (treated/untreated OD600 ratio)” value (S. gordonii 10558; 130 μg/ml)?
Answer: 0.06

Question: What about the “lysis value after 1 hr (treated/untreated OD600 ratio)” value (S. sobrinus 6715; 6.5 μg/ml) of the same molecule?
Answer: 0.64

Question: And the “lysis value after 1 hr (treated/untreated OD600 ratio)” value (S. sobrinus 6715; 13 μg/ml)?
Answer: 0.48

Question: What about the “lysis value after 1 hr (treated/untreated OD600 ratio)” value (S. sobrinus 6715; 30 μg/ml) of the same molecule?
Answer: 0.39

Question: And the “lysis value after 1 hr (treated/untreated OD600 ratio)” value (S. sobrinus 6715; 65 μg/ml)?
Answer: 0.32

Question: What about the “lysis value after 1 hr (treated/untreated OD600 ratio)” value (S. sobrinus 6715; 130 μg/ml) of the same molecule?
Answer: 0.23

Question: What about the “lysis value after 1 hr (treated/untreated OD600 ratio)” value (E. faecium EFSK2; 6.5 μg/ml) of the same molecule?
Answer: 0.85

Question: And the “lysis value after 1 hr (treated/untreated OD600 ratio)” value (E. faecium EFSK2; 13 μg/ml)?
Answer: 0.67

Question: And the “lysis value after 1 hr (treated/untreated OD600 ratio)” value (E. faecium EFSK2; 30 μg/ml)?
Answer: 0.52

Question: And the “lysis value after 1 hr (treated/untreated OD600 ratio)” value (E. faecium EFSK2; 65 μg/ml)?
Answer: 0.32

Question: What about the “lysis value after 1 hr (treated/untreated OD600 ratio)” value (E. faecium EFSK2; 130 μg/ml) of the same molecule?
Answer: 0.13
